The values below are quoted from earlier work in paper PMC12390062.

Data set [1] deals with nicotinic acetylcholine receptor α-δ interface α-δ interface (Mus musculus) (UniProt P04756).
The target in data set [2] is nicotinic acetylcholine receptor α-γ interface α-γ interface (Mus musculus) (UniProt P04756).
The target of data set [3] is nicotinic acetylcholine receptor α7 (Gallus gallus) (UniProt P22770).

On to α-conotoxin MI (from UniProt P01521), for which the Kd in data set [1] is 0.00062 µM; in data set [2], 20 µM.

As to “wNTX5 (Group 3b (ii) toxin) (from UniProt O42255)”, the Kd in data set [3] is 90 µM.

What is called Kd is the equilibrium constant for the complex coming apart.
